One data set has as its target T1, SgMT (Streptomyces griseoviridis, UniProt A0A918GRY4).
T1 construct: gene GCM10010238_52040; C-terminally His-tagged for kinetics, produced in E. coli BL21 (DE3), Ni-NTA purified; dimer; residues before T7 disordered in crystal
T1 sequence (A0A918GRY4 1-269): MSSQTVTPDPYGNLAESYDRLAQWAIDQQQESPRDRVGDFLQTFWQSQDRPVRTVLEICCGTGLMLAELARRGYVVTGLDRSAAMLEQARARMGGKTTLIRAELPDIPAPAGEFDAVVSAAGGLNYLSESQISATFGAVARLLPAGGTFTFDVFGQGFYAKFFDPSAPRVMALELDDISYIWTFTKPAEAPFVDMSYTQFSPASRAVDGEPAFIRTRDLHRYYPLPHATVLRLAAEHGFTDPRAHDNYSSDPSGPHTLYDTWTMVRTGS
As to the kind of experiment: X-ray crystallography, […] Å. Type of data set: binding. The following applies: non-methylated form of the cofactor, co-crystallised; cWW in the sample but not seen in density.

For data set [1], the target named is SAM-dependent indole C3-methyltransferase SgMT from Streptomyces griseoviridis (Streptomyces griseoviridis). As to the kind of experiment: crystal structure; SgMT crystallised in the presence of SAH (cWW included in the sample but not seen); space group P4(1)2(1)2, three protein chains per asymmetric unit; dmin 1.47 Å.
Substrate in data set [2]: O=C1N[C@@H](Cc2c[nH]c3ccccc23)C(=O)N[C@H]1Cc1c[nH]c2ccccc12
As to the kind of experiment: MTase Glo luminescence assay (SAH formation), Michaelis-Menten. Type of data set: biochemical, Streptomyces griseoviridis. The following applies: co-substrate SAM; C-terminally His-tagged enzyme.

`Nc1ncnc2c1ncn2[C@@H]1O[C@H](CSCC[C@H](N)C(=O)O)[C@@H](O)[C@H]1O` [SAH]: the “X-ray crystallography, 1.47 Å” value on SgMT was “we crystallised the protein in the presence of the cofactor (using the non-methylated form, SAH)”.
As to “SAM-dependent indole C3-methyltransferase SgMT from Streptomyces griseoviridis (enzyme)”, the stoichiometry N in data set [1] was 2.

B1: SgMT (Streptomyces griseoviridis) (protein)
chain: T1 sequence (A0A918GRY4 1-269)
notes: C-terminally His-tagged for kinetics, produced in E. coli BL21 (DE3), Ni-NTA purified; dimer; residues before T7 disordered in crystal
For B1, in data set [2], the Km turned out to be 10.53 ± 2.01 µM and the kcat came out at 0.0025 s⁻¹.

The record behind these values is paper PMC11804793, “Characterization of a C-methyltransferase from Streptomyces griseoviridis – crystal structure, mechanism, and substrate scope” (Chemical Science, 2025).
